This is an account of results in patent US20230242658A1 (published 2023).

Where two headings read alike, the source gives them in different places.

For assay [1], the target named is T1, cynomolgus monkey 4-1BB on CHO-K1 cells (cynomolgus monkey).
T1 chain: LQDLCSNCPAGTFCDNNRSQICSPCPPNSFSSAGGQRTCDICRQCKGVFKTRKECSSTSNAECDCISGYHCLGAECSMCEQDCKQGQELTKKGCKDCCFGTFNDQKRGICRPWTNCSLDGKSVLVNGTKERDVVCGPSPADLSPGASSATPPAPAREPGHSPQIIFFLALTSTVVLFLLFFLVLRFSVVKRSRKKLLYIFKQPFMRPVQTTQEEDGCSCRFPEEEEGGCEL
Briefly: FACS; FIG. 12E. On the technique in general: In flow cytometry, cells or beads pass a laser one at a time.

In assay [2] the target is T2, human 4-1BB on CHO-K1 cells (human, UniProt Q07011 24-255). Briefly: FACS blocking of 4-1BBL.
Target sequence in this assay (Q07011 24-255): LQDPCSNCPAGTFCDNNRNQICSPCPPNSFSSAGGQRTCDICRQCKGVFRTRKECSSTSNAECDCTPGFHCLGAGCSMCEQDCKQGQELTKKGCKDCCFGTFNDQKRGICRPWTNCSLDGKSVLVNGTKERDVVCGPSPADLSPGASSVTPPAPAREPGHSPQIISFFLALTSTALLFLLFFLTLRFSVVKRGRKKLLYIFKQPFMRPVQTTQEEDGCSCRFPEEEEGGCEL
In assay [3] the target is T2, human 4-1BB on CHO-K1 cells. Briefly: FACS.
Target sequence in this assay (Q07011 24-255): as above
The target is the same in assay [4]. The experiment in a line: FACS. The source holds these as a separate data set.
Target sequence in this assay (Q07011 24-255): as above
The target in assay [5] is T1, cynomolgus monkey 4-1BB on CHO-K1 cells. Briefly: FACS; FIG. 12A.
Assay [6] concerns the target T2, human 4-1BB on CHO-K1 cells. Briefly: FACS blocking of 4-1BBL. This is another data set of the same source.
Target sequence in this assay (Q07011 24-255): as above
Assay [7] concerns the target T1, cynomolgus monkey 4-1BB on CHO-K1 cells. The experiment in a line: FACS; FIG. 12B.
Assay [8] concerns the target T2, human 4-1BB on CHO-K1 cells. Briefly: FACS. This is another data set of the same source.
For assay [9], the target named is T1, cynomolgus monkey 4-1BB on CHO-K1 cells. The experiment in a line: FACS; FIG. 12D.
The target is the same in assay [10]. The experiment in a line: FACS; FIG. 12F.
Assay [11] has as its target T2, human 4-1BB on CHO-K1 cells. The experiment in a line: FACS. The source holds these as a separate data set.
Assay [12] concerns the target human PD-L1 on CHO-K1 cells (human, UniProt Q9NZQ7 19-290). The experiment in a line: FACS.
For assay [13], the target named is T1, cynomolgus monkey 4-1BB on CHO-K1 cells. The experiment in a line: FACS; FIG. 12J.
In assay [14] the target is T2, human 4-1BB on CHO-K1 cells. The experiment in a line: FACS; FIG. 11K.
Target sequence in this assay (Q07011 24-255): as above
Assay [15] has the same target. The experiment in a line: FACS blocking of 4-1BBL. The source holds these as a separate data set.
Target sequence in this assay (Q07011 24-255): as above

Sequence of human PD-L1 on CHO-K1 cells (Q9NZQ7 19-290): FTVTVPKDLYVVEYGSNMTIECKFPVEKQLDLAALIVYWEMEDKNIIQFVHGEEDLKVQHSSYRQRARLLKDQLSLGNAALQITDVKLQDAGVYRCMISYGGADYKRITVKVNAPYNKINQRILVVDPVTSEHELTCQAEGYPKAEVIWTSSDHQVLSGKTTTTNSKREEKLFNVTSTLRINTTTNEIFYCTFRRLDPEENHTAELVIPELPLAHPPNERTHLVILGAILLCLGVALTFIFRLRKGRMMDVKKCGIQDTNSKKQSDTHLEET

B1: PR001831 (antibody, V domains shown)
VH: EVQLVESGGGVIQPGGSLRLSCEASGFTFSSYAMSWVRQAPEKGLEWVSSISGSGDSTYYADSVKGRFTISRDNSKNTLYLQMNSLRAEDTAGYHCAKEGSNGTDDYHYDIDVWGQGTSVTVSS
Usually EC50 stands for the midpoint of the concentration-response curve. What is called IC50 is the concentration that inhibits the measured activity by half. For B1, the 50% effective concentration (EC50) in assay [1] was found to be 2.58 nM. In addition, in [2], the IC50 worked out at 4.05 nM.

B2: PR001830 (antibody, V domains shown)
VH: EVQLLESGGGLVQPGGSLRLSCTASGFTFSNYAMSWVRQAPEKGLEWVSSISGSGGSTFYADSVKGRFTISRDNSKNTLYLQMNSLRAEDTAVYFCAKEGSSETDDHYYNVDVWGQGTTVTVSS
Regarding B2, the results for the 50% effective concentration (EC50) in [3] and in assay [1] were 0.209 nM and 0.899 nM, respectively. In addition, the concentration for half-maximal inhibition (IC50) in assay [2] was found to be 2.32 nM.

B3: PR001760 (antibody, V domains shown)
VH: EVQLVESGGGVVQPGGSLRLSCAASGFTFSNYAMTWVRQAPEKGLEWVSSISGSGVSTYYADSVKGRFTISRDNSKNTLYLQMTRLTAEDTAVYFCAKEGSSETDDHYYNVDVWGQGTTVTVSS
Consider B3, for which the figures for the EC50 in [4] and in assay [5] were 0.198 nM and 0.443 nM, respectively. For the same molecule, the IC50 in assay [6] was 2.05 nM.

B4: PR001763 (antibody, V domains shown)
VH: EVQLLESGGGLVQPGGSLRLSCTASGFTFSNYAMSWVRQAPEKGLEWVSSISGSGGSTFYADSVKGRFTISRDNSKNTLYLQMNRLTAEDTAVYYCAKEGSNGTDDYHYDIDVWGQGTTVTVSS
As for B4, the half-maximal effective concentration (EC50) in assay [4] was 0.616 nM; in assay [7], approximately 0.411 nM. The IC50 in [6] is 4.99 nM.

B5: PR001833 (antibody, V domains shown)
VH: EVQLLESGGGLVQPGGSLRLSCAASGFTFSSYAMSWVRQAPEKGLEWVSSISGSGGSTFYADSVKGRFTISRDNSKNTLYLQMNSLRAEDTAVYFCAKEGATETDDYHFNTDVWGQGTTVTVSS
Consider B5, for which the figures for the EC50 in assay [3] and in assay [1] were 0.21 nM and 1.02 nM, respectively. In assay [2], this molecule registered a half-inhibitory concentration (IC50) of 2.31 nM.

B6: PR001836 (antibody, V domains shown)
VH: EVQLLESGGGLVQPGGSLRLSCAASGFIFSNFAMTWVRQPPEKGLKWVSSINGSGFNTYYTDSVKGRFTISRDNSRNTLYLQMNRLTAEDTAVYFCAKEGSSETDDHYYNVDVWGQGTTVTVSS
On to B6, for which the concentration for a half-maximal effect (EC50) was 0.28 nM in assay [3] and 2.41 nM in assay [1]. Moreover, the IC50 in assay [2] was determined as 2.12 nM.

B7: PR001764 (antibody, V domains shown)
VH: EVQLLESGGGLVQPGGSLRLSCAASGFTFSSYAMSWVRQAPEKGLEWVSAISGGGGSTYYADSVKGRFTISRDNSKNTLYLQMDSLKAEDTAVYYCAKEGTTETDDYHYNMDVWGQGTTVTVSS
For the molecule B7, the EC50 in assay [8] stood at 0.249 nM; in assay [7] it was 5.33 nM. Moreover, the half-maximal inhibitory concentration (IC50) in [6] is 2.79 nM.

B8: PR001834 (antibody, V domains shown)
VH: EVQLLESGGGLVQPGGSLRLSCAASGFTFSGYAMTWVRQPPEKGLEWVSSISGSGNNTFYADSVKGRFTISRDNSKNTLYLQMNSLRAEDTAVYYCAKEGTTETDDYHYNMDVWGQGTTVTVSS
On to B8, for which the concentration giving a half-maximal response (EC50) in [3] was found to be 0.449 nM; in [1], 3.46 nM. Moreover, the half-inhibitory concentration (IC50) in assay [2] came to 2.93 nM.

B9: PR001758 (antibody, V domains shown)
VH: EVQLLESGGGLVQLGGSLRLSCAASGFTFSRYAMTWVRQAPEKGLEWVSSISGSGDDTYYGDSVKGRFTISRDNSQNTVYLQMNSLRAEDTAVYFCAKEKAGTTGDYYYNVDVWGQGTTVTVSS
Regarding B9, the results for the concentration giving a half-maximal response (EC50) in [4] and in [5] were 0.212 nM and 0.575 nM, respectively. This molecule displayed an IC50 in assay [6] of 3.61 nM.

B10: PR001781 (antibody, V domains shown)
VH: EVQLLESGGGLVQLGGSLRLSCAASGFTFSSYAMTWVRQAPEKGLEWVSSISGSGGNTYYADSVKGRFTISRDNSKNTLYLQMNSLRAEDTAVYYCAKERTGTTGDYYYNVDVWGQGTTVTVSS
For the molecule B10, the EC50 in assay [8] is 0.492 nM; in assay [9] it was 3.1 nM.

B11: PR001775 (antibody, V domains shown)
VH: EVQLLESGGGLVQSGGSLRLSCAASGFTFSSYAMSWVRQAPGKGLEWVSAISGSGGSTDYADSVKGRFTISRDNSTNTLYLQMNSLRAEDTAVYYCAKERAYDYSNYVDFDYWGQGTLVTVSS
Turning to B11, the EC50 in [8] is 0.477 nM; in assay [9], 2.66 nM. In assay [2], this molecule gave an IC50 of 2.4 nM.

B12: PR001780 (antibody, V domains shown)
VH: EVQLLESGGGLIQPGGSLRLSCAASGFTFSSFAMTWVRQAPGKGLEWVSTISGSGDNTYYADSVKGRFTISRDNSKNTLYLQMNSLRAEDTAVYFCAKEDTAVASDYYYNIDVWGQGTTVTVSS
As to B12, the EC50 in [8] was found to be 0.708 nM; in assay [9] it was 2.99 nM. This molecule also yielded an IC50 in [2] of 6.33 nM.

B13: PR001759 (antibody, V domains shown)
VH: EVQLLESGGGLVQPGGSLRLSCAASGFTFSSYAMSWFRQPPETGLQWVSSIGGSGGDTYYADSVKGRFTISRDNSKNTLYLQMNSLRAEDTAVYYCAKEGSNGTDDNYYDVDVWGQGTTVTVSS
With B13, the EC50 in assay [4] is 0.274 nM; in assay [5], 0.788 nM. In [6], half-maximal inhibition (IC50) required 2.31 nM.

B14: PR001767 (antibody, V domains shown)
VH: EVQLVETGGGLIQPGGSLRLSCAASGFTVSSNYMSWVRQAPGKGLEWVSVIYSDGSTYYADSVKGRFTISRDNSKNTLYLQMNSLRAEDTAVYYCARDRYYGSGNYPTAYYGMDVRGQGTTVTVSS
For the molecule B14, the values for the concentration giving a half-maximal response (EC50) in assay [8] and in assay [7] were 5.87 nM and 25 nM, respectively.

B15: PR001766 (antibody, V domains shown)
VH: EVQLLESGGGLVQPGGSLRLSCAASGFTFSSYAMSWGRQAPGKGLEWVSSISGSGGSTYYADSVKGRFTISRDNSKNTLYLQMNSLRAEDTAVYYCAKEKTGTTGDYYYDMDVWGQGTTVTVSS
With B15, the concentration giving a half-maximal response (EC50) was 0.399 nM in [8] and 4.99 nM in assay [7]. The molecule also showed an IC50 in assay [6] of 4.34 nM.

B16: PR001842 (antibody, V domains shown)
VH: EVQLLESGGGLVQPGGSLRLSCAASGFTFSSYAMSWGRQAPGKGLEWVSAISGSGGSTYYADSVKGRFTISRDNSKNTLYLHMNSLRAEDTAVYYCAKEKVATTGDYYYDMDVWGQGTTVTVSS
Turning to B16, the results for the EC50 in [3] and in [10] were 0.537 nM and 2.29 nM, respectively.

B17: PR000701 (bispecific antibody)
chain 1: not shown
chain 2: EVQLVESGGGLVQPGGSLRLSCAASGFTFSSYWMSWVRQAPGKGLEWVANIKQEGSEKYYVDSVKGRFTISRDNAKNSLYLQMNSLRAEDTAVYYCARDRAVAGAFDIWGQGTMVTVSSASTKGPSVFPLAPSSKSTSGGTAALGCLVKDYFPEPVTVSWNSGALTSGVHTFPAVLQSSGLYSLSSVVTVPSSSLGTQTYICNVNHKPSNTKVDKKVEPKSC
chain 3: not shown
Regarding B17, the 50% effective concentration (EC50) in assay [11] is 10.2 nM; in [12] it was 1.72 nM.

B18: PR001776 (antibody, V domains shown)
VH: EVQLLESGGGLVQPGGSLRLSCAASGFTFSSYAMSWVRQAPEKGLEWVSAISSSGGSTYYADSVKGRFTISRDNSKNTLYLQMNSLRAEDTAVYYCAKDGVTTPSYYYYYDMDVWGQGTTVTVSS
Turning to B18, the EC50 came to 2.43 nM in [8] and 18.1 nM in assay [9]. This molecule also gave a half-maximal inhibitory concentration (IC50) in assay [2] of 10.9 nM.

B19: PR007292 (antibody, V domains shown)
VH: EVQLVESGGGLVKPGGSLRLSCAASGFTFSDYYMSWIRQAPGKGLEWVSYISSSGSTIDYADSVKGRFTISRDNAKNSLYLQMNSLRAEDTAVYYCAREREEVAGTLDYDNWGQGTLVTVSS
For B19, the EC50 in assay [13] was 4.88 nM; in [14], 1.81 nM. This molecule yielded an IC50 in assay [15] of 5.37 nM.

B20: PR007294 (antibody, V domains shown)
VH: EVQLVESGGGLVKPGGSLRLSCVASGFTFSDYYMSWFRQAPGKGLEWVSYISGSGTTIDYADSVKGRFTISRDNAKNSLYLQMNSLRAEDTAVYYCAREREPVAGTLDFDNWGQGTLVTVSS
For the molecule B20, the half-maximal effective concentration (EC50) in assay [13] came out at 1.99 nM; in assay [14], 1.14 nM. The concentration for half-maximal inhibition (IC50) in [15] is 6.61 nM.
